Assay [1] concerns the target calcineurin, WT (UniProt Q08209).
For assay [2], the target named is calcineurin I396A/I400A (UniProt Q08209).

On to “human CaM, untagged (pET28-a) (from UniProt P0DP23 1-149) (natural protein)”, for which the half-maximal CaM concentration (KCaM) for activation of phosphatase activity against a phosphorylated RII peptide stood at 30 nM in assay [1] and 670 nM in assay [2].

Source of the values: paper PMC5698441, “Molecular basis of AKAP79 regulation by calmodulin” (Nature Communications, 2017).
